Laboratory results reported in CN109721655A (ZONHON BIOPHARMA INST INC, dated 2019).

T1: 重组人肌红蛋白 (recombinant human myoglobin, expressed in E. coli, made in-house) (human, UniProt P02144 2-154)
T1 construct: also called 人MYO; 重组人MYO
T1 sequence (looked up): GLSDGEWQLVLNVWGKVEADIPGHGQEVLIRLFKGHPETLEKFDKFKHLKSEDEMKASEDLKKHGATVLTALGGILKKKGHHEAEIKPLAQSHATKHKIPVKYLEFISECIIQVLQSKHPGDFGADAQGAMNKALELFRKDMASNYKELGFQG

B1: 单链抗体M26 (anti-human myoglobin scFv M26, His-tagged, expressed in E. coli) (scFv)
scFv: QVQLQQSGDDLVKPGASVKLSCKASGYTFTSYWINWIKQRPGQGLEWIGRIAPEGDSTYYNEMFKGKATLTVDTSSSTAYIQLSSLSSEDSAVYFCAREVRNAMDYWGQGTSVTVSSGGGGSGGGGSGGGGSDIQMNQSPSSLSASLGDTITITCHASQNIHVWLSWYLQKPGNITKLLIYEASNLHTGVPSRFSGSGSGTGFTLTISSLQPEDIATYYCQQGQRYPLTFGGGTKLEIK
notes: Purified on HisTrap HP; HRP-labelled for the Western blot; Coated on the T line of the nitrocellulose membrane in the test card; also called M26抗体; M26-scFv; not shown: histidine tag added downstream of the scFv gene
B2: 单链抗体M08 (anti-human myoglobin scFv M08, His-tagged, expressed in E. coli) (scFv)
scFv: QVQLQQSGAELAKPGASVKMSCKASGYTFTSYWMHWVKQRPGQGLEWIGYIKPNTDYTEYNQKFKDKATLTADKSSSTAYMQLSSLTSEDSAVYYCTRIRGYALDYWGQGTSVTVSSGGGGSGGGGSGGGGSDIVMTQSPSSLTVTAGEKVTMICKSSQSLLNSGNQKNYLTWYQQKPGQPPKLLIYWASTRESGVPDRFTGSGSGTDFTLTISSVQAEDLAVYYCQNDYNFPLTFGAGTKLELK
notes: Purified on HisTrap HP; HRP-labelled for the Western blot; Coupled to time-resolved fluorescent microspheres in the test card; also called M08抗体; M08-scFv; not shown: histidine tag added downstream of the scFv gene
B3: 杂交瘤细胞株M08的抗体 (mouse monoclonal antibody from hybridoma M08) (antibody, V domains shown)
VH: QVQLQQSGAELAKPGASVKMSCKASGYTFTSYWMHWVKQRPGQGLEWIGYIKPNTDYTEYNQKFKDKATLTADKSSSTAYMQLSSLTSEDSAVYYCTRIRGYALDYWGQGTSVTVSS
VL: DIVMTQSPSSLTVTAGEKVTMICKSSQSLLNSGNQKNYLTWYQQKPGQPPKLLIYWASTRESGVPDRFTGSGSGTDFTLTISSVQAEDLAVYYCQNDYNFPLTFGAGTKLELK
notes: Tested as hybridoma culture supernatant; Mouse IgG, detected with HRP goat anti-mouse IgG
B4: 杂交瘤细胞株M26的抗体 (mouse monoclonal antibody from hybridoma M26) (antibody, V domains shown)
VH: QVQLQQSGDDLVKPGASVKLSCKASGYTFTSYWINWIKQRPGQGLEWIGRIAPEGDSTYYNEMFKGKATLTVDTSSSTAYIQLSSLSSEDSAVYFCAREVRNAMDYWGQGTSVTVSS
VL: DIQMNQSPSSLSASLGDTITITCHASQNIHVWLSWYLQKPGNITKLLIYEASNLHTGVPSRFSGSGSGTGFTLTISSLQPEDIATYYCQQGQRYPLTFGGGTKLEIK
notes: as for B3

Legend:
[1] = target: T1, 重组人肌红蛋白 (recombinant human myoglobin, …); experiment: Western blot of recombinant MYO with HRP-labelled M26 (1:1000)
[2] = target: T1, 重组人肌红蛋白 (recombinant human myoglobin, …); experiment: Western blot of recombinant MYO with HRP-labelled M08 (1:1000)
[3] = target: T1, 重组人肌红蛋白 (recombinant human myoglobin, …); experiment: indirect ELISA, hybridoma supernatant on plates coated with recombinant human MYO at 1 μg/mL, HRP goat anti-mouse IgG

Binder	binding result [3]	also measured
B1	–	binding result [1]: binds
B2	–	binding result [2]: binds
B3	binds	–
B4	binds	–
